Assay results as given in patent US20100081612A1 (GENERAL HOSPITAL, published 2010).
Read-outs that look alike come from different tables or passages of the source. One block for each binder: values may come before it. Where no end group is shown, it is not given here. [ ]: non-standard residue; d: D form. Phe(4-guanidino) = N=C(N)Nc1ccc(C[C@H](N)C(=O)O)cc1

Columns and labels:
[1] = target: T1, wild-type human PTHR (human, UniProt Q03431 27-593); test: competition binding, HKRK-B7 cells, 125I-PTH(1-34) tracer
T1 sequence (looked up): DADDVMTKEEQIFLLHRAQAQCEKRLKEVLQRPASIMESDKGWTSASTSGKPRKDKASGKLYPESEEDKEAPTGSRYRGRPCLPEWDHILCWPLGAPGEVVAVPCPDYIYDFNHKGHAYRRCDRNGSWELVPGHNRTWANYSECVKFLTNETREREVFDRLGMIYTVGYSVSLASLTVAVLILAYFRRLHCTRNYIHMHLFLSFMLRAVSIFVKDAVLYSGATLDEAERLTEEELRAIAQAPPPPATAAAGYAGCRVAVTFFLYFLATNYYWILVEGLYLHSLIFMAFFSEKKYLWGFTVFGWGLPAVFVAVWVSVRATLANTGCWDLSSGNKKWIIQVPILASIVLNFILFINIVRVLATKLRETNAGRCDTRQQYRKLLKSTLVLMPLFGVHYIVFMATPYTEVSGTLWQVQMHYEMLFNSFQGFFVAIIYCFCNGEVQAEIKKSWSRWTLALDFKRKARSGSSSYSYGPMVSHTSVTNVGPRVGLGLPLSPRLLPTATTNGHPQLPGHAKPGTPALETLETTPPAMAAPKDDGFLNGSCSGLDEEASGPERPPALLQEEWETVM

[2] = target: PTHR-delNt (human) (UniProt Q03431); test: competition binding, COS-7 membranes, 125I-[Aib1,3,M]PTH(1-15) tracer
[3] = target: T1, wild-type human PTHR; test: competition binding, HKRK-B7 cells, 125I-PTH(1-34) tracer
Method in brief: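 Intact HKRK-B7 cells stably expressing hPTHR incubated 4 h at 15° C with ¹²⁵I-PTH(1-34) tracer and unlabeled peptide (3×10⁻⁹ to 1×10⁻⁵ M). Nonspecific binding defined with 1×10⁻⁶ M PTH(1-31)NH₂. Bound activity counted after lysis and expressed as % specific binding without competitor; values in nM, mean ± s.e.m.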

[4] = target: PTHR-delNt (human) (UniProt Q03431); test: competition binding, COS-7 membranes, 125I-[Aib1,3,M]PTH(1-15) tracer; remark: listed apart in the source

IC50 [1]: > 10 µM
IC50 [2]: 2.05 µM
fold difference of IC50 from PTH(1-31)NH2 [2]: < 4 fold
B1: PTH(1-31)NH2 Arg^20→Gph (peptide)
peptide: SVSEIQLMHNLGKHLNSME[Phe(4-guanidino)]VEWLRKKLQDV-NH2
modifications: N-terminus assumed
SMILES: CC[C@H](C)[C@H](NC(=O)[C@H](CCC(=O)O)NC(=O)[C@H](CO)NC(=O)[C@@H](NC(=O)[C@@H](N)CO)C(C)C)C(=O)N[C@@H](CCC(N)=O)C(=O)N[C@@H](CC(C)C)C(=O)N[C@@H](CCSC)C(=O)N[C@@H](Cc1c[nH]cn1)C(=O)N[C@@H](CC(N)=O)C(=O)N[C@@H](CC(C)C)C(=O)NCC(=O)N[C@@H](CCCCN)C(=O)N[C@@H](Cc1c[nH]cn1)C(=O)N[C@@H](CC(C)C)C(=O)N[C@@H](CC(N)=O)C(=O)N[C@@H](CO)C(=O)N[C@@H](CCSC)C(=O)N[C@@H](CCC(=O)O)C(=O)N[C@@H](Cc1ccc(NC(=N)N)cc1)C(=O)N[C@H](C(=O)N[C@@H](CCC(=O)O)C(=O)N[C@@H](Cc1c[nH]c2ccccc12)C(=O)N[C@@H](CC(C)C)C(=O)N[C@@H](CCCNC(=N)N)C(=O)N[C@@H](CCCCN)C(=O)N[C@@H](CCCCN)C(=O)N[C@@H](CC(C)C)C(=O)N[C@@H](CCC(N)=O)C(=O)N[C@@H](CC(=O)O)C(=O)N[C@H](C(N)=O)C(C)C)C(C)C

IC50 [3]: 0.125 µM
IC50 [2]: 18.9 µM
fold reduction in binding affinity vs [Ala^1,Arg^19]PTH(1-31)NH2 [2]: 50 fold
fold reduction in binding affinity vs [Ala^1,Arg^19]PTH(1-31)NH2 [4]: 90 fold
Binder: AVSEIQLMHNLGKHLNSMERVEWLRKKLQDV-NH2 [[Ala^1,Arg^19]hPTH(1-31)NH2 Arg^19→Glu]
